Experimental data: FireProtDB (doi:10.1016/j.csbj.2015.03.010)

B1: Arabinogalactan endo-beta-1,4-galactanase, P48842 (parent)
chain: MFASLLLAALPLLTHAALTYRGADISSLLLLEDEGYSYKNLNGQTQALETILADAGINSIRQRVWVNPSDGSYDLDYNLELAKRVKAAGMSLYLDLHLSDTWADPSDQTTPSGWSTTDLGTLKWQLYNYTLEVCNTFAENDIDIEIISIGNEIRAGLLWPLGETSSYSNIGALLHSGAWGVKDSNLATTPKIMIHLDDGWSWDQQNYFYETVLATGELLSTDFDYFGVSYYPFYSASATLASLKTSLANLQSTYDKPVVVVETNWPVSCPNPAYAFPSDLSSIPFSVAGQQEFLEKLAAVVEATTDGLGVYYWEPAWIGNAGLGSSCADNLMVDYTTDEVYESIETLGEL

Variants of: B1
Settings: Aspergillus aculeatus; pH 4.5; Thermal; DSC; sodium acetate buffer 50 mM; transition: 2; reversible: no; structure 1FHL; whole UniProt chain shown

Variant | Tm [°C] | change of melting temperature, mutant - wild type (higher = more stable) [°C]
S201D Q204T | 61 | 0.11
G322A | 62 | 1.1
D74N | 61.5 | 0.65
Y311F | 61.2 | 0.34
D198N | 61.4 | 0.53
G120D A172R | 60.7 | -0.18
